Publication PMC1636413 (Nucleic Acids Research, 2006)
“And” between values parts separate entries of the source, which are not always exact repeats. Equal entries are not always repeated.

Tests used:
[1] = target: the molecule itself; assay: SEC
[2] = target: T1, MutSwt (Escherichia coli K12, UniProt P23909 1-853); assay: EMSA
T1 sequence: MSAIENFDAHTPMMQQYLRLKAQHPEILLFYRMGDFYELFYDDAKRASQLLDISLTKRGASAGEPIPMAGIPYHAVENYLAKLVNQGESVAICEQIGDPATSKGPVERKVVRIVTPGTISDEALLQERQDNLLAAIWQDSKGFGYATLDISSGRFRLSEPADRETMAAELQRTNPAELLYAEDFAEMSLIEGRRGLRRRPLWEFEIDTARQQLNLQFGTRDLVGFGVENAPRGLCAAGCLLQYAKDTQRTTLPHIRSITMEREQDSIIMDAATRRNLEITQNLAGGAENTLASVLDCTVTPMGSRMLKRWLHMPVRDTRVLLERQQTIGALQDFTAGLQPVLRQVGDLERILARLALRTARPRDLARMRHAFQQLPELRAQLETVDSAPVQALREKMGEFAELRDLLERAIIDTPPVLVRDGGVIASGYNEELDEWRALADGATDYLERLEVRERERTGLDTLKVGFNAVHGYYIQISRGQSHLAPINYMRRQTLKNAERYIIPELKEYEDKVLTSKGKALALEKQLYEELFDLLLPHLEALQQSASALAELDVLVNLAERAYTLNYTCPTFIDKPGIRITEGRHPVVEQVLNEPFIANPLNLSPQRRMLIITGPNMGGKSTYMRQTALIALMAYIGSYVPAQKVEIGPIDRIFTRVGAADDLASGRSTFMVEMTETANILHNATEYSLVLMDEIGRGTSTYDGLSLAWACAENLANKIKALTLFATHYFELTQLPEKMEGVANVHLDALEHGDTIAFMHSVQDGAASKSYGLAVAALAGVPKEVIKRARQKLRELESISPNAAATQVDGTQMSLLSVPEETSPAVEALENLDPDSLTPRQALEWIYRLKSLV

[3] = target: T2, MutSCF/D835R (Escherichia coli K12, UniProt P23909 1-853, C93A;C235S;C239A;C297S;C569S;C711V;D835R); assay: EMSA
T2 sequence: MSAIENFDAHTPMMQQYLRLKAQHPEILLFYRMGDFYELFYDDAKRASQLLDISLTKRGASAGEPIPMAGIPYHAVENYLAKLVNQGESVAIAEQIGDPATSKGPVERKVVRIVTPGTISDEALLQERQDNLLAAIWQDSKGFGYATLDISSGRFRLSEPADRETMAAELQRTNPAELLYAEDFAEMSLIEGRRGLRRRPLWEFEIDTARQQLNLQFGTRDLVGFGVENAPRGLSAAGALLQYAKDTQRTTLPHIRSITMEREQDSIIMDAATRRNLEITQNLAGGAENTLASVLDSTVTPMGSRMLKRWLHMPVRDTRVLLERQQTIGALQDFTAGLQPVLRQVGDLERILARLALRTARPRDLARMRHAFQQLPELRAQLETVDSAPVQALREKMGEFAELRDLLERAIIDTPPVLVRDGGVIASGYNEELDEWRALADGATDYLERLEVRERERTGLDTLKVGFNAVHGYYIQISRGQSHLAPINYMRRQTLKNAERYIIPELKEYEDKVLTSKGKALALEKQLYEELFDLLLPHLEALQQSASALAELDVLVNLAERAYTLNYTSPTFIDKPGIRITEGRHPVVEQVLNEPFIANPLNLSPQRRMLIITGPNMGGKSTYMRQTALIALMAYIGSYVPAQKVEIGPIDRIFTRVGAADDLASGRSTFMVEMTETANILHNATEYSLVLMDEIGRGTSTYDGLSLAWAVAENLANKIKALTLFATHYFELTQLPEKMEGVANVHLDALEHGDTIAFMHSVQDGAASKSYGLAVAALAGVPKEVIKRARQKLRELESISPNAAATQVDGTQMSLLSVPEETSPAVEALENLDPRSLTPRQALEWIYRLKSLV

[4] = target: T3, MutSCF (cysteine-free MutS) (Escherichia coli K12, UniProt P23909 1-853, C93A;C235S;C239A;C297S;C569S;C711V); assay: EMSA
T3 sequence: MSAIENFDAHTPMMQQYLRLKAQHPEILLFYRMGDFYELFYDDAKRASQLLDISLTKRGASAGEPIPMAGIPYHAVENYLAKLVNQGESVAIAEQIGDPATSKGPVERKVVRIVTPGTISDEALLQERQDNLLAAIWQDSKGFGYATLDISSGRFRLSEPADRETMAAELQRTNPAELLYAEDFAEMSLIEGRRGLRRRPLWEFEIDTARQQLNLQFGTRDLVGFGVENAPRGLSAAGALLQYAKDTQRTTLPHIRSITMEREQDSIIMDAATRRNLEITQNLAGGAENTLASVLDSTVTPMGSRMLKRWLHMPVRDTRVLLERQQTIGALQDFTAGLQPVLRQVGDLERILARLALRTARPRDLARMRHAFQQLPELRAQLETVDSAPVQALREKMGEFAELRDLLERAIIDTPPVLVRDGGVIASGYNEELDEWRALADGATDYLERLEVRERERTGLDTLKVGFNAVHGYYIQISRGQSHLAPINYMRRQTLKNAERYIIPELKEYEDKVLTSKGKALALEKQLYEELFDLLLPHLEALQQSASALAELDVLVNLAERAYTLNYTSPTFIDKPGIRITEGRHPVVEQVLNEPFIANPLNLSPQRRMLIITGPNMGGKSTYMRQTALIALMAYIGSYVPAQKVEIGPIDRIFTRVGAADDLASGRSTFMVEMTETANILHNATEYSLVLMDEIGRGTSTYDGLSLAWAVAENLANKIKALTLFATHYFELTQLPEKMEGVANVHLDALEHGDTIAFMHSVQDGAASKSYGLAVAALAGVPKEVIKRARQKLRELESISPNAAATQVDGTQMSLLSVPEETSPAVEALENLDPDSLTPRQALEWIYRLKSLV

[5] = target: the molecule itself; assay: AUC
[6] = target: the molecule itself; assay: SEC; remark: listed apart in the source

B1: MutS^wt (E.coli MutS, full-length, N-terminal His6-tagged) (natural protein, UniProt P23909 1-853, looked up)
chain: MSAIENFDAHTPMMQQYLRLKAQHPEILLFYRMGDFYELFYDDAKRASQLLDISLTKRGASAGEPIPMAGIPYHAVENYLAKLVNQGESVAICEQIGDPATSKGPVERKVVRIVTPGTISDEALLQERQDNLLAAIWQDSKGFGYATLDISSGRFRLSEPADRETMAAELQRTNPAELLYAEDFAEMSLIEGRRGLRRRPLWEFEIDTARQQLNLQFGTRDLVGFGVENAPRGLCAAGCLLQYAKDTQRTTLPHIRSITMEREQDSIIMDAATRRNLEITQNLAGGAENTLASVLDCTVTPMGSRMLKRWLHMPVRDTRVLLERQQTIGALQDFTAGLQPVLRQVGDLERILARLALRTARPRDLARMRHAFQQLPELRAQLETVDSAPVQALREKMGEFAELRDLLERAIIDTPPVLVRDGGVIASGYNEELDEWRALADGATDYLERLEVRERERTGLDTLKVGFNAVHGYYIQISRGQSHLAPINYMRRQTLKNAERYIIPELKEYEDKVLTSKGKALALEKQLYEELFDLLLPHLEALQQSASALAELDVLVNLAERAYTLNYTCPTFIDKPGIRITEGRHPVVEQVLNEPFIANPLNLSPQRRMLIITGPNMGGKSTYMRQTALIALMAYIGSYVPAQKVEIGPIDRIFTRVGAADDLASGRSTFMVEMTETANILHNATEYSLVLMDEIGRGTSTYDGLSLAWACAENLANKIKALTLFATHYFELTQLPEKMEGVANVHLDALEHGDTIAFMHSVQDGAASKSYGLAVAALAGVPKEVIKRARQKLRELESISPNAAATQVDGTQMSLLSVPEETSPAVEALENLDPDSLTPRQALEWIYRLKSLV
- stoichiometry N [1]: 2 and 4

B2: 42 bp G/T heteroduplex (dsDNA)
DNA 1: TATTAATTTCGCGGGCTCGAGAGCTTCATCCTCTACGCCGGA
DNA 2: TCCGGCGTAGAGGATGAAGCTTTCGAGCCCGCGAAATTAATA
- binding result [2]: binds
- apparent K (half saturation) [3]: 45 ± 3 nM
- apparent K (half saturation) [4]: 42 ± 2 nM

B3: MutS-CTD (His6-tagged C-terminal domain of E.coli MutS, residues 801-853) (domain or fragment, UniProt P23909 801-853, looked up)
chain: PNAAATQVDGTQMSLLSVPEETSPAVEALENLDPDSLTPRQALEWIYRLKSLV
- stoichiometry N [5]: 4
- stoichiometry N [6]: 2

B4: MutS-CTD^D835R (domain or fragment, E.coli, UniProt P23909 801-853, looked up)
chain: PNAAATQVDGTQMSLLSVPEETSPAVEALENLDPRSLTPRQALEWIYRLKSLV
- stoichiometry N [5]: 2

B5: MutS-CTD^ΔHis6 (MutS-CTD with the N-terminal His6-tag removed by DAPase) (domain or fragment, E.coli, UniProt P23909 801-853, looked up)
chain: PNAAATQVDGTQMSLLSVPEETSPAVEALENLDPDSLTPRQALEWIYRLKSLV
- stoichiometry N [5]: 4
